From publication doi:10.1101/2025.02.03.636340 come the findings set out here.

The target of the assay is HA-SNAP-mGluR3 (rat metabotropic glutamate receptor 3) (rat), P31422. As to the kind of experiment: SiMPull with photobleaching step analysis. The following applies: remark: other sources report otherwise.

B1: HA-SNAP-mGluR3 (rat metabotropic glutamate receptor 3), P31422 23-879 (receptor)
chain: LGDHNFMRREIKIEGDLVLGGLFPINEKGTGTEECGRINEDRGIQRLEAMLFAIDEINKDNYLLPGVKLGVHILDTCSRDTYALEQSLEFVRASLTKVDEAEYMCPDGSYAIQENIPLLIAGVIGGSYSSVSIQVANLLRLFQIPQISYASTSAKLSDKSRYDYFARTVPPDFYQAKAMAEILRFFNWTYVSTVASEGDYGETGIEAFEQEARLRNICIATAEKVGRSNIRKSYDSVIRELLQKPNARVVVLFMRSDDSRELIAAANRVNASFTWVASDGWGAQESIVKGSEHVAYGAITLELASHPVRQFDRYFQSLNPYNNHRNPWFRDFWEQKFQCSLQNKRNHRQVCDKHLAIDSSNYEQESKIMFVVNAVYAMAHALHKMQRTLCPNTTKLCDAMKILDGKKLYKEYLLKINFTAPFNPNKGADSIVKFDTFGDGMGRYNVFNLQQTGGKYSYLKVGHWAETLSLDVDSIHWSRNSVPTSQCSDPCAPNEMKNMQPGDVCCWICIPCEPYEYLVDEFTCMDCGPGQWPTADLSGCYNLPEDYIKWEDAWAIGPVTIACLGFLCTCIVITVFIKHNNTPLVKASGRELCYILLFGVSLSYCMTFFFIAKPSPVICALRRLGLGTSFAICYSALLTKTNCIARIFDGVKNGAQRPKFISPSSQVFICLGLILVQIVMVSVWLILETPGTRRYTLPEKRETVILKCNVKDSSMLISLTYDVVLVILCTVYAFKTRKCPENFNEAKFIGFTMYTTCIIWLAFLPIFYVTSSDYRVQTTTMCISVSLSGFVVLGCLFAPKVHIVLFQPQKNVVTHRLHLNRFSVSGTATTYSQSSASTYVPTVCNGREVLDSTTSSL
modifications: here or on the partner: SNAP tag labelled with SBG-JF646; SNAP tag labelled with SBG-JF646
For the molecule B1, the % of spots with 2 bleaching steps in the receptor channel was determined as 50% and the stoichiometry N turned out to be 2.

As a reminder, the stoichiometry N is a count of units in the complex or per binding partner.
